Test results: patent publication US20020088017A1, “Adenosine deaminase deficient transgenic mice and methods for the use thereof” (Board of Regents, The University of Texas System, priority 1999, published 2002)

Assays:
ADA deficient mice [1] = experiment: PEGADA enzyme therapy of ADA deficient mice: respiratory status and survival; type: in vivo
Source text: The inventors contemplate that PEGADA treatments may be chronic or acute. In preferred chromic treatments a constant level of PEGADA is maintained in the mouse at concentrations of 150 to 300 U/Kg. In preferred acute treatments, a single dose of PEGADA (300 U/Kg) is given.
For chronic treatment of the mice of the present invention, litters are given an intramuscular injection of PEGADA at four days of postnatal file. The initial dose of PEGADA given is approximately 300 U/Kg body weight, where U (unit) is defined as 1 μmole adenosine converted to inosine per minute. this dose is within an order of magnitude of that given to treat ADA deficient humans. Mice were treated every four days with a dose of 150 to 300 U/Kg.
For acute treatment of the mice of the present invention, mice are injected intramuscularly once on postnatal day 18 with 300 U/kg PEGADA.
(§1) PEGADA, also known as ADAGEN, was obtained through collaboration with Enzon Inc. (Piscataway, N.J.). Control or ADA deficient mice were lightly anesthetized and injected intramuscularly with 10 microlitetrs of PEGADA corresponding to approximately 2.5 Units of ADA. […] Levels of ADA enzyme activity in tissues was measured using zymogram analysis according to established procedures (Blackburn et al., 1998). This procedure visualizes enzyme activity on non-denaturing agarose gels (Blackburn et al., 1998).
Polyethylene glycol modified ADA (PEGADA) enzyme therapy is a lifesaving strategy used to treat ADA deficient humans (Hershfield et al., 1993). […] The inventors treated ADA deficient mice with intramuscular injections of PEGADA (ENZON, Inc.; Piscataway, N.J.) in an attempt to modulate the respiratory distress seen. Mice were treated intramuscularly with 300 units of PEGADA. […] Even more striking was the observation that PEGADA could reverse the phenotype of an ADA deficient animal after its onset. ADA deficient animals were allowed to develop severe lung inflammation and damage (day 17), and were then treated with PEGADA.

ADA deficient mice [2] = experiment: Cellular differentials in bronchial alveolar lavage fluid (BALF) after PEGADA; type: in vivo
Experimental: FIG. 5A and FIG. 5B. Reversible lung eosinophilia and lung adenosine levels in ADA deficient mice treated with PEGADA. FIG. 5A, Total cellular differentials of cells collected from BALF of 18-day old control mice (n=19), ADA deficient mice (n=12) and ADA deficient mice treated with PEGADA and examined 72 hours later (n=5). Differentials were determined by counting 200 cells from BALF cytospins of each sample, and multiplying the percentage of each cell type found by the total number of cells in the BALF. Mean values are given as total cells (S.E.M.). FIG. 5B, Adenosine levels were quantitated in the lungs of 18-day old control mice (n=5), ADA deficient mice (n=4), and ADA deficient mice treated with PEGADA and examined 72 hours later (n=4). Mean values are given as nanomoles adenosine per mg protein±S.E.M.
Mice were anesthetized with avertin and the trachea exposed using blunt dissection. After securing a blunted 21-gauge needle into the trachea, the lungs were lavaged 5 times with 0.25 ml PBS. Lavages from individual animals were pooled and on average 0.95 to 1 ml of lavage fluid was recovered. Samples were centriflged at 2,500 rpm for 5 min to recover cells. Supernatant from these spins were collected and stored at −70 degrees C. for the analysis of cytokines. Cells were resuspended in 200 microliter PBS, an aliquot counted using a hemocytometer and another aliquot cytospun onto microscope slides where cells were stained with Diff-Quick (Dade) for cellular differentials. […] cells per sample were identified and counted under oil immersion.
PEGADA, also known as ADAGEN, was obtained through collaboration with Enzon Inc. (Piscataway, N.J.). […] Levels of ADA enzyme activity in tissues was measured using zymogram analysis according to established procedures (Blackburn et al., 1998). […]
(§2) Cell populations were monitored in BALF collected from ADA deficient mice 72 hours following treatment with PEGADA (FIG. 5A), in order to determine what effect PEGADA treatment had on lung inflammation. […]

ADA deficient mice [3] = experiment: ELISA of serum IgE and BALF cytokines after PEGADA; type: in vivo; details: PEGADA enzyme therapy
Experimental: IFNg, IL-4 and IL-5 levels in BALF were determined using specific murine OptiEA ELISA kits from Pharmagen according to manufactures instructions. For the analysis of IgE levels, blood was collected from the heart of anesthetized mice and the serum separated by centrifugation of samples at 3,000 rpm for 10 min a 4 degrees C. A murine OptiEA ELISA kit from Pharmagen was utilized to quantitate serum IgE levels. Values were read and quantitated at linerarity using a MRX II plate reader equipped with Revelation software (Dynex Technologies).
PEGADA, also known as ADAGEN, was obtained through collaboration with Enzon Inc. (Piscataway, N.J.). Control or ADA deficient mice were lightly anesthetized and injected intramuscularly with 10 microlitetrs of PEGADA corresponding to approximately 2.5 Units of ADA. Injections were given either chronically every 4 days starting at postnatal day 4, or acutely, as one injection on postnatal day 18. Levels of ADA enzyme activity in tissues was measured using zymogram analysis according to established procedures (Blackburn et al., 1998). This procedure visualizes enzyme activity on non-denaturing agarose gels (Blackburn et al., 1998).
as §2

[4] = test system: adenosine in the lungs of ADA deficient mice; experiment: Quantification of adenosine in lungs (reversed phase HPLC) after PEGADA; type: in vivo
Experimental: FIG. 5A and FIG. 5B. Reversible lung eosinophilia and lung adenosine levels in ADA deficient mice treated with PEGADA. FIG. […] Differentials were determined by counting 200 cells from BALF cytospins of each sample, and multiplying the percentage of each cell type found by the total number of cells in the BALF. Mean values are given as total cells (S.E.M.). FIG. […] Mean values are given as nanomoles adenosine per mg protein±S.E.M.
as §1, with “This procedure visualizes enzyme activity on non-denaturing agarose gels (Blackburn et al., 1998).” left out
Mice were anesthetized with avertin, the thoracic cavity exposed, and the lungs were removed and frozen rapidly in liquid nitrogen to prevent metabolism of adenine nucleotides and nucleosides. Adenine nucleosides were extracted from frozen lungs using 0.4 N perchloric acid as described (Knudsen et al., 1992), and adenosine was separated and quantitated using reversed phase HPLC according to established procedures (Knudsen et al., 1992). […]

ADA deficient humans = details: weekly intramuscular injection; cited from earlier work
[5] = weekly intramuscular injections of PEGADA from birth
[6] = 72 hours following treatment with PEGADA

B1: PEGADA: ADA polypeptides conjugated to polyethylene glycol; also known as ADAGEN, obtained from Enzon Inc. (protein, UniProt P56658 2-363, looked up)
Adenosine deaminase: AQTPAFNKPKVELHVHLDGAIKPETILYYGRKRGIALPADTPEELQNIIGMDKPLSLPEFLAKFDYYMPAIAGCREAVKRIAYEFVEMKAKDGVVYVEVRYSPHLLANSKVEPIPWNQAEGDLTPDEVVSLVNQGLQEGERDFGVKVRSILCCMRHQPSWSSEVVELCKKYREQTVVAIDLAGDETIEGSSLFPGHVKAYAEAVKSGVHRTVHAGEVGSANVVKEAVDTLKTERLGHGYHTLEDATLYNRLRQENMHFEVCPWSSYLTGAWKPDTEHPVVRFKNDQVNYSLNTDDPLIFKSTLDTDYQMTKNEMGFTEEEFKRLNINAAKSSFLPEDEKKELLDLLYKAYGMPSPASAEQCL
modifications: PEG conjugate (pegademase)
ADA deficient mice [1]; chronic treatment, intramuscular, approx. 300 U/Kg at postnatal day 4, then every four days 150 to 300 U/Kg
  rescue of ADA deficient mice that without treatment die by three weeks of age: sufficient to rescue ADA deficient mice
ADA deficient mice [1]; treated after onset of severe lung inflammation and damage (day 17)
  recovery and survival: recovered and survived as long as they were maintained on PEGADA
ADA deficient mice [1]; treated after onset of severe lung inflammation and damage (day 17), within 24 to 48 hours
  respiratory status: noticeably improved
ADA deficient mice [1]; [5]
  development of pulmonary problems: never develop pulmonary problems
  survival: survive as long as the animals are maintained on PEGADA
ADA deficient mice [1]; withdrawal of PEGADA therapy
  outcome when PEGADA therapy was stopped: rapidly showed signs of pulmonary insufficiency and died within a week
ADA deficient mice [2]; [6]
  alveolar macrophages in BALF: remained elevated
  number of eosinophils in BALF: greatly reduced
ADA deficient mice [2]; treatment with PEGADA, as stated in Example 9
  number of eosinophils found in the BALs: decrease in the number of eosinophils
ADA deficient mice [3]
  levels of BALF cytokines: no effect
  levels of serum IgE: no effect
[4]
  accumulation of adenosine in the lung: prevents the accumulation of adenosine in the lung
[4]; 72 hrs following treatment with PEGADA, control < 0.2, untreated ADA deficient 6.3 nmoles/mg protein
  adenosine levels in ADA deficient lungs: lowered to near control levels
ADA deficient humans
  accumulation of ADA substrates in ADA deficient humans: prevents the accumulation of ADA substrates
